Results as given in paper PMC10397247.
Where two headings read alike, the source gives them in different places. Blank lines part the entries; values can stand above or below the binder they belong to.

Key:
4H2774-AA = molecular target: T1, 4H2774-AA; experiment: two-hybrid library CCmax; details: mean of both orientations;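 also: natural log of median RNA to DNA barcode read ratio; higher means stronger binding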
T1 chain: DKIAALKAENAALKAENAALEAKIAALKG

4H1449-AA = molecular target: T2, 4H1449-AA; experiment: two-hybrid library CCmax; details: mean of both orientations;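 also: natural log of median RNA to DNA barcode read ratio; higher means stronger binding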
T2 chain: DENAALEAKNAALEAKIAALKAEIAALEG

4H432-AA = molecular target: T3, 4H432-AA; experiment: two-hybrid library CCmax; details: mean of both orientations;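 also: natural log of median RNA to DNA barcode read ratio; higher means stronger binding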
T3 chain: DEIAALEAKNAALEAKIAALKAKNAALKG

4H3629-AA = molecular target: T4, 4H3629-AA; experiment: two-hybrid library CCmax; details: mean of both orientations;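 also: natural log of median RNA to DNA barcode read ratio; higher means stronger binding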
T4 chain: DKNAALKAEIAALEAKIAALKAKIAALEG

4H2728-AA = molecular target: T5, 4H2728-AA; experiment: two-hybrid library CCmax; details: mean of both orientations;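 also: natural log of median RNA to DNA barcode read ratio; higher means stronger binding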
T5 chain: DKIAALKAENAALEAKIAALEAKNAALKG

4H3595-AA = molecular target: T6, 4H3595-AA; experiment: two-hybrid library CCmax; details: mean of both orientations;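 also: natural log of median RNA to DNA barcode read ratio; higher means stronger binding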
T6 chain: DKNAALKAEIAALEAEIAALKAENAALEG

4H1878-AA = molecular target: T7, 4H1878-AA; experiment: two-hybrid library CCmax; details: mean of both orientations
T7 chain: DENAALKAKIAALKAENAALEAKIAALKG

4H2760-AA = molecular target: T8, 4H2760-AA; experiment: two-hybrid library CCmax; details: mean of both orientations
T8 chain: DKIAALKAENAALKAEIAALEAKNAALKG

4H3414-AA = molecular target: T9, 4H3414-AA; experiment: two-hybrid library CCmax; details: mean of both orientations
T9 chain: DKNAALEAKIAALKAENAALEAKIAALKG

4H483-AA = molecular target: T10, 4H483-AA; experiment: two-hybrid library CCmax; details: mean of both orientations
T10 chain: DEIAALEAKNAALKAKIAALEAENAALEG

4H235-AA = molecular target: T11, 4H235-AA; experiment: two-hybrid library CCmax; details: mean of both orientations
T11 chain: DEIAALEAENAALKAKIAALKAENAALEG

4H2903-AA = molecular target: T12, 4H2903-AA; experiment: two-hybrid library CCmax; details: mean of both orientations
T12 chain: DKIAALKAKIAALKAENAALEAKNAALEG

4H1558-AA = molecular target: T13, 4H1558-AA; experiment: two-hybrid library CCmax; details: mean of both orientations
T13 chain: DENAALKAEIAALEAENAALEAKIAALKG

4H63-AA = molecular target: T14, 4H63-AA; experiment: two-hybrid library CCmax; details: mean of both orientations
T14 chain: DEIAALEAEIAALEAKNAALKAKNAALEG

4H3939-AA = molecular target: T15, 4H3939-AA; experiment: two-hybrid library CCmax; details: mean of both orientations
T15 chain: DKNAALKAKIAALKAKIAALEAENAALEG

4H3782-AA = molecular target: T16, 4H3782-AA; experiment: two-hybrid library CCmax; details: mean of both orientations
T16 chain: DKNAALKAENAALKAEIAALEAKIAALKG

4H380-AA = molecular target: T17, 4H380-AA; experiment: two-hybrid library CCmax; details: mean of both orientations
T17 chain: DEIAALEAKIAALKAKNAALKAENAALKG

4H3915-AA = molecular target: T18, 4H3915-AA; experiment: two-hybrid library CCmax; details: mean of both orientations
T18 chain: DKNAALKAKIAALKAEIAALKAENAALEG

4H2580-AA = molecular target: T19, 4H2580-AA; experiment: two-hybrid library CCmax; details: mean of both orientations
T19 chain: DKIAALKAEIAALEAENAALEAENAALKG

4H1593-AA = molecular target: T20, 4H1593-AA; experiment: two-hybrid library CCmax; details: mean of both orientations
T20 chain: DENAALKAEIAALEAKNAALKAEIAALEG

4H1384-AA = molecular target: T21, 4H1384-AA; experiment: two-hybrid library CCmax
T21 chain: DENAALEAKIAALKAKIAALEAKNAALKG

4H2604-AA = molecular target: T22, 4H2604-AA; experiment: two-hybrid library CCmax; details: mean of both orientations
T22 chain: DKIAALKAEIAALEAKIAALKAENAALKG

4H464-AA = molecular target: T23, 4H464-AA; experiment: two-hybrid library CCmax; details: mean of both orientations
T23 chain: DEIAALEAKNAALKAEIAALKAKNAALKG

4H3974-AA = molecular target: T24, 4H3974-AA; experiment: two-hybrid library CCmax; details: mean of both orientations
T24 chain: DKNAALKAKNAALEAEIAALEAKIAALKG

P2-AA-1HGe-A = molecular target: T25, P2-AA-1HGe-A; experiment: two-hybrid library CCmax
T25 chain: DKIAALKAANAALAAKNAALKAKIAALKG

4H2699-AA = molecular target: T26, 4H2699-AA; experiment: two-hybrid library CCmax; details: mean of both orientations
T26 chain: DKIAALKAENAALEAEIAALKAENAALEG

4H3619-AA = molecular target: T27, 4H3619-AA; experiment: two-hybrid library CCmax; details: mean of both orientations
T27 chain: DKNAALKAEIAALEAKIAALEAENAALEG

4H249-AA = molecular target: T28, 4H249-AA; experiment: two-hybrid library CCmax
T28 chain: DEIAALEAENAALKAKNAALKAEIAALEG

4H324-AA = molecular target: T29, 4H324-AA; experiment: two-hybrid library CCmax; details: mean of both orientations
T29 chain: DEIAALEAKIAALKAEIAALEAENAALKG

4H3969-AA = molecular target: T30, 4H3969-AA; experiment: two-hybrid library CCmax; details: mean of both orientations
T30 chain: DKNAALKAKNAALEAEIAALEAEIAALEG

4H1360-AA = molecular target: T31, 4H1360-AA; experiment: two-hybrid library CCmax; details: mean of both orientations
T31 chain: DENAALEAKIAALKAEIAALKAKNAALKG

4H3094-AA = molecular target: T32, 4H3094-AA; experiment: two-hybrid library CCmax; details: mean of both orientations
T32 chain: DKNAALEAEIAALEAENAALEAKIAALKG

4H3777-AA = molecular target: T33, 4H3777-AA; experiment: two-hybrid library CCmax; details: mean of both orientations
T33 chain: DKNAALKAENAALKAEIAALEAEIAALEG

4H3449-AA = molecular target: T34, 4H3449-AA; experiment: two-hybrid library CCmax; details: mean of both orientations
T34 chain: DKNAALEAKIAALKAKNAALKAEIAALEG

4H446-AA = molecular target: T35, 4H446-AA; experiment: two-hybrid library CCmax; details: mean of both orientations
T35 chain: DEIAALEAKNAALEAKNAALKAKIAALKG

4H2621-AA = molecular target: T36, 4H2621-AA; experiment: two-hybrid library CCmax; details: mean of both orientations
T36 chain: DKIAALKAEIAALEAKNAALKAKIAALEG

4H3129-AA = molecular target: T37, 4H3129-AA; experiment: two-hybrid library CCmax; details: mean of both orientations
T37 chain: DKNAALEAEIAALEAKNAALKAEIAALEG

4H1913-AA = molecular target: T38, 4H1913-AA; experiment: two-hybrid library CCmax; details: mean of both orientations
T38 chain: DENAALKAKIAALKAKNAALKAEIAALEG

4H2961-AA = molecular target: T39, 4H2961-AA; experiment: two-hybrid library CCmax; details: mean of both orientations
T39 chain: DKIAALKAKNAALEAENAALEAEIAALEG

4H1454-AA = molecular target: T40, 4H1454-AA; experiment: two-hybrid library CCmax; details: mean of both orientations
T40 chain: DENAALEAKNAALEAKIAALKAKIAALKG

4H3049-AA = molecular target: T41, 4H3049-AA; experiment: two-hybrid library CCmax; details: mean of both orientations
T41 chain: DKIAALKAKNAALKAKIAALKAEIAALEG

4H341-AA = molecular target: T42, 4H341-AA; experiment: two-hybrid library CCmax; details: mean of both orientations
T42 chain: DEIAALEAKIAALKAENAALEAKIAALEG

4H2947-AA = molecular target: T43, 4H2947-AA; experiment: two-hybrid library CCmax; details: mean of both orientations
T43 chain: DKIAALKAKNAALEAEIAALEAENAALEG

4H3632-bA = molecular target: T44, 4H3632-bA; experiment: two-hybrid library CCNG1
T44 chain: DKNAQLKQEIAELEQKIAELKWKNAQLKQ

4H2691-bA = molecular target: T45, 4H2691-bA; experiment: two-hybrid library CCNG1
T45 chain: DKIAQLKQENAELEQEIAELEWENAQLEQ

4H3070-bA = molecular target: T46, 4H3070-bA; experiment: two-hybrid library CCNG1
T46 chain: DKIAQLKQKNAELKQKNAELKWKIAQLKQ

4H496-bA = molecular target: T47, 4H496-bA; experiment: two-hybrid library CCNG1
T47 chain: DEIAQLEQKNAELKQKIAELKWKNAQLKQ

4H953-bH = molecular target: T48, 4H953-bH; experiment: two-hybrid library CCNG1
T48 chain: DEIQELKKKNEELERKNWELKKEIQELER

4H342-bA = molecular target: T49, 4H342-bA; experiment: two-hybrid library CCNG1
T49 chain: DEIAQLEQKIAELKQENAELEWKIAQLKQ

- interaction score (4H2774-AA): -2.01
- interaction score (4H1449-AA): -0.154
- interaction score (4H432-AA): -1.21
- interaction score (4H3629-AA): 2.08
- interaction score (4H2728-AA): -1.04
- interaction score (4H3595-AA): 1.05
- interaction score (4H1878-AA): -0.906
- interaction score (4H2760-AA): -0.562
- interaction score (4H3414-AA): -0.92
- interaction score (4H483-AA): -1.07
- interaction score (4H235-AA): -2.02
- interaction score (4H2903-AA): -0.278
- interaction score (4H1558-AA): -0.218
- interaction score (4H63-AA): -0.724
- interaction score (4H3939-AA): 0.491
- interaction score (4H3782-AA): 0.414
- interaction score (4H380-AA): -0.754
- interaction score (4H3915-AA): 0.312
- interaction score (4H2580-AA): -0.799
- interaction score (4H1593-AA): 0.813
- interaction score (4H1384-AA; mean of both orientations): 1.03
- interaction score (4H2604-AA): 1.42
- interaction score (4H464-AA): -0.554
- interaction score (4H3974-AA): 0.171
- interaction score (P2-AA-1HGe-A): -1.79
- interaction score (4H2699-AA): -1.39
- interaction score (4H3619-AA): 0.504
- interaction score (4H249-AA; mean of both orientations): -2.14
- interaction score (4H324-AA): 1.84
- interaction score (4H3969-AA): -1.13
- interaction score (4H1360-AA): 0.392
- interaction score (4H3094-AA): -0.703
- interaction score (4H3777-AA): -0.808
- interaction score (4H3449-AA): -0.531
- interaction score (4H446-AA): -1.37
- interaction score (4H2621-AA): 2.18
- interaction score (4H3129-AA): 0.123
- interaction score (4H1913-AA): -0.124
- interaction score (4H2961-AA): -2.4
- interaction score (4H1454-AA): -0.224
- interaction score (4H3049-AA): -0.0176
- interaction score (4H341-AA): -0.142
- interaction score (4H2947-AA): -1.49
Binder: DENAALEAKIAALKAEIAALEAKIAALEG [4H1349-AA]

- interaction score (4H2774-AA): -1.81
- interaction score (4H1449-AA): -1.1
- interaction score (4H432-AA): -1.33
- interaction score (4H3629-AA): 0.973
- interaction score (4H1878-AA): -1.08
- interaction score (4H2760-AA): -1.74
- interaction score (4H235-AA): -1.3
- interaction score (4H2903-AA): -0.437
- interaction score (4H63-AA): -0.475
- interaction score (4H380-AA): -1.4
- interaction score (4H3915-AA): -0.264
- interaction score (4H2580-AA): 0.35
- interaction score (4H1593-AA): -1.48
- interaction score (4H1384-AA): 0.25
- interaction score (4H2604-AA): 1.45
- interaction score (4H3974-AA): 0.121
- interaction score (4H3619-AA): 2.13
- interaction score (4H249-AA): -1.81
- interaction score (4H324-AA): 0.82
- interaction score (4H3094-AA): -0.731
- interaction score (4H3777-AA): 0.578
- interaction score (4H3449-AA): -1.82
- interaction score (4H446-AA): -2.33
- interaction score (4H2621-AA): -0.862
- interaction score (4H2961-AA): -1.37
- interaction score (4H3049-AA): -0.361
- interaction score (4H341-AA): -0.177
- interaction score (4H2947-AA): -1.05
Binder: DENAALEAKIAALKAKIAALEAKNAALKG [4H1384-AA]

- interaction score (4H3632-bA): -0.861
- interaction score (4H2691-bA): -1.17
- interaction score (4H3070-bA): 0.439
- interaction score (4H496-bA): -3.04
- interaction score (4H953-bH): -0.501
- interaction score (4H342-bA): -0.443
Binder: DKIAQLKQENAELEQEIAELEWENAQLEQ [4H2691-bA]
